Earlier results, collected in paper PMC3415683.

Molecular target: Dll-1 DSL-EGF3 (Homo sapiens) (UniProt O00548)
Experiment: SPR

Sequence of UniProt O00548 (O00548 177-325): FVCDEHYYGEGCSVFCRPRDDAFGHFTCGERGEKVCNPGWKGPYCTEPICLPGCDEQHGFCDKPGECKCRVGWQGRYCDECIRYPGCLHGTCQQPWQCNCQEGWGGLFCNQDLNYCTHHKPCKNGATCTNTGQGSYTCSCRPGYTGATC

Kd: 130 µM
Substance: Notch1 EGF11-14 (from UniProt P46531)
